Assay results as given in US20140120095A1 (Boehringer Ingelheim, published 2014).
Where a chain is given by its changes, count along the chain named.

T1: cynomolgus DLL4 overexpressed on cells (cynomolgus, UniProt Q9NR61 27-685 (human entry))
T1 construct: also called cyno DII4; cDLL4
T1 chain: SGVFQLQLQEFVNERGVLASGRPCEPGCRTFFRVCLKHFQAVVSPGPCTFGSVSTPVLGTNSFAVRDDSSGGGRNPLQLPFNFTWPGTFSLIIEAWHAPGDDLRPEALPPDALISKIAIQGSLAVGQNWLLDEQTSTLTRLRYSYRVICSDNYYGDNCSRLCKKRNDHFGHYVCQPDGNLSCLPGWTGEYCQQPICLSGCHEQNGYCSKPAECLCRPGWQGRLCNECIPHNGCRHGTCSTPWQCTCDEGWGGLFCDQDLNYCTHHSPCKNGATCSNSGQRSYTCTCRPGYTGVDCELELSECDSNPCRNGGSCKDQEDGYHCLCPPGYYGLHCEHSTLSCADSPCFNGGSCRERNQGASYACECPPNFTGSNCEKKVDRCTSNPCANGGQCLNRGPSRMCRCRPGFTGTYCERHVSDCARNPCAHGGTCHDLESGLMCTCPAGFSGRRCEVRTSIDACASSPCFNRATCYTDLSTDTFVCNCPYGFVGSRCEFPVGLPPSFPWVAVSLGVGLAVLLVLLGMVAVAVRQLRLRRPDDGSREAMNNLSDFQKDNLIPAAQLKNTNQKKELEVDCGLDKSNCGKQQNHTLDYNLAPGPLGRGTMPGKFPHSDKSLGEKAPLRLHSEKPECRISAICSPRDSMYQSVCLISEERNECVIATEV

T2: human DLL1 (human, UniProt O00548 18-545, limits assumed)
T2 construct: also called hDLL1
T2 sequence (looked up): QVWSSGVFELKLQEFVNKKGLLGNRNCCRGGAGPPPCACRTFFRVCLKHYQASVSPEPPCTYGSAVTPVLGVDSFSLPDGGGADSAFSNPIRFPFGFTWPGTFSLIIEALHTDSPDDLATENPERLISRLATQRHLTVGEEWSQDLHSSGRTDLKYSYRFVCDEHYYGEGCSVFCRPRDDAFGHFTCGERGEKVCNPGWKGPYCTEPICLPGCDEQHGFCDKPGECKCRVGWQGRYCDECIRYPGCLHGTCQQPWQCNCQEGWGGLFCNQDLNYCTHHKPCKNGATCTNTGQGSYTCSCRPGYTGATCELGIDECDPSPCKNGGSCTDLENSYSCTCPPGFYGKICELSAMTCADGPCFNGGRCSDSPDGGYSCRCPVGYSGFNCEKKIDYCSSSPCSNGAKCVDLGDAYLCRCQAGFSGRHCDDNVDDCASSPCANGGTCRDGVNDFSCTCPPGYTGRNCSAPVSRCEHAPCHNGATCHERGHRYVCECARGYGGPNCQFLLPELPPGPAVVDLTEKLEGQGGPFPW

B1: DLLBII101G08 (VHH)
VHH: EVQLVESGGGLVQAGGSLRLSCAASGRTFSSYAMAWFRQAPGKEREFVAAIRWSGGTAYYADSVQGRFTISRDNAKNTVYLQMNSLKPEDTAVYYCANRAADTRLGPYEYDYWGQGTQVTVSS
notes: also called 101G8; DLLBII101G8
B2: DLLBII129B05 (VHH, not shown: small tags and cut ends)
VHH: B1 VHH with F37Y, F47Y, A101P, G106A, Y112H
B3: DLLBII115A05 (VHH)
VHH: EVQLVESGGGLVQPGGSLRLSCAASGFTFGSYDMSWVRRSPGKGPEWVSSINSGGGSTYYADFVKGRFTISRDNAKNTLYLQMNSLKPEDTAVYYCAADRYIRARQGDYWGAYEYDYWGQGTQVTVSS
notes: also called 115A5; DLLBII115A5
B4: DLLBII136C07 (VHH, not shown: small tags and cut ends)
VHH: B3 VHH with F63Y, R103W, D108E
B5: DLLBII56A09 (VHH)
VHH: EVQLVESGGGLVQPGGSLRLSCAASGFTFDDYAIGWFRQAPGKEPEGISCISSSGGITYYADSVKGRFTTSRDNAKNTVYLQMNSLKPEDTAVYYCATPGIAACRGIHYTGQGTQVTVSS
notes: also called 56A9; DLLBII56A9

Key:
[1] = molecular target: T1, cynomolgus DLL4 overexpressed on cells; assay: FACS titration on HEK293-cDLL4 cells, MCF
How it was run: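 HEK293 cells overexpressing DLL4 (transient or stable) were incubated with VHH titrations for 30 min on ice. After washing, binding was detected with anti-c-myc-Alexa647 by flow cytometry, and the mean MCF was used to calculate EC50.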

[2] = molecular target: T3, mouse DLL4 overexpressed on cells (mouse, UniProt Q9JI71 27-686); assay: FACS titration on HEK293-mDLL4 cells, MCF
T3 construct: whole, on cells; also called CHO-mDLL4; CHO-mDII4
T3 sequence (Q9JI71 27-686): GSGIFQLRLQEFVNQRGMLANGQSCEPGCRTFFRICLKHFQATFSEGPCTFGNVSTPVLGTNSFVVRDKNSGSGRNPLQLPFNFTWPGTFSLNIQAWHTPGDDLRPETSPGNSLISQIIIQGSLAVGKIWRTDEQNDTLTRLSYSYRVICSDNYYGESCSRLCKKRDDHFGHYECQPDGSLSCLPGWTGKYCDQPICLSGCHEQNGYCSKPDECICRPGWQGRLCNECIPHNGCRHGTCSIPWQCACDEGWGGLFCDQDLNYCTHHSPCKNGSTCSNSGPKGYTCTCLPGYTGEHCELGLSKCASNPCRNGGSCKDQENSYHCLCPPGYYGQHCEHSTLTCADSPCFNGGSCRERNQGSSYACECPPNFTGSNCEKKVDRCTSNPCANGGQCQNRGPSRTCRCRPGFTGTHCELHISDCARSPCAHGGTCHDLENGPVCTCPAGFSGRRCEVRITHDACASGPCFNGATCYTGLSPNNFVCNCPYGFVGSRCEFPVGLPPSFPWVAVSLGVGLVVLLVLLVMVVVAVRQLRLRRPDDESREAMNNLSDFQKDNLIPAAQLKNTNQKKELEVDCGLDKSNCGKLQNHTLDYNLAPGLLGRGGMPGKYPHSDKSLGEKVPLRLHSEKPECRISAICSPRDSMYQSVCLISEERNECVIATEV
Protocol: In order to determine the cynomologus cross-reactivity of the VHHs, a FACS binding experiment is performed. Cynomolgus DII4 expressing HEK293 cells (transient or stable transfection) are used for a titration binding experiment of the VHHs. After a 30 minutes incubation on ice, all samples are washed and detection is performed by applying anti-c-myc˜Alexa647 (Santa Cruz Biotechnology, Santa Cruz, Calif., USA). Human and mouse DII4 overexpressing HEK293 cells are taken as reference. The mean MCF value is determined on the FACS Array and used for calculation of the EC₅₀ value (see FIG. 9 A-E).

human DLL1 = molecular target: T2, human DLL1; assay: binding ELISA on coated recombinant human DLL1, OD 405 nm
How it was run: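 Plates coated overnight at 4° C with 1 μg/mL ligand, blocked with 1% casein in PBS. VHH dilution series applied; bound VHH detected via mouse anti-myc then anti-mouse-AP conjugate.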

[3] = molecular target: T3, mouse DLL4 overexpressed on cells; assay: FMAT, labelled hNotch1-Fc on CHO-mDLL4, periplasmic extract
Excerpt: All calculations are based on the FL1_total signal which comprises the average of the fluorescence per well times the number of counts per well.

recombinant mouse DLL4 = molecular target: T4, recombinant mouse DLL4 (mouse, UniProt Q9JI71 27-532); assay: binding ELISA, coated rmDLL4
T4 construct: extracellular domain; also called rmDLL4; mDLL4
T4 sequence (Q9JI71 27-532): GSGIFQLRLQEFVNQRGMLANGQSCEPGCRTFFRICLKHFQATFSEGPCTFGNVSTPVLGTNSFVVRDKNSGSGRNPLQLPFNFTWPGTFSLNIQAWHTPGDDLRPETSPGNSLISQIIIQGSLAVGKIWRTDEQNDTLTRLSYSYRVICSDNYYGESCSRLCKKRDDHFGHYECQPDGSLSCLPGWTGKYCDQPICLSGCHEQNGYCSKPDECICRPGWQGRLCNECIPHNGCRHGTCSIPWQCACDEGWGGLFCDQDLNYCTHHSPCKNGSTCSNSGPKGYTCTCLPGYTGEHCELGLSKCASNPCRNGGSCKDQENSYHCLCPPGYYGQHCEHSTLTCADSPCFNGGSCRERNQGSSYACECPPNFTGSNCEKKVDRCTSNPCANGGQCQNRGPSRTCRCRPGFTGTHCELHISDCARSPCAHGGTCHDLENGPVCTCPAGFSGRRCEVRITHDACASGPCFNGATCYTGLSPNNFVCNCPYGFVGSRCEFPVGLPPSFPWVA
Protocol: In order to determine cross-reactivity to mouse DII4 a binding ELISA is performed. […] Wells are blocked with a casein solution (1% in PBS). VHHs are applied as dilution series and binding is detected using a mouse anti-myc (Roche) and an anti-mouse-AP conjugate (Sigma, St Louis, Mo., USA) (FIG. 7 A-H). As reference, binding to human DII4 is measured.

[4] = molecular target: human DLL4 expressed on cells (CHO-hDLL4; HEK293-hDLL4) (human, UniProt Q9NR61 27-685); assay: cell-based or functional assay
recombinant human DLL4 = molecular target: T5, recombinant human DLL4 (human, UniProt Q9NR61 25-522); assay: competition AlphaScreen, biot-hDLL4/hNotch1-Fc
T5 construct: also called rhDLL4; hDLL4
Protocol: In brief, 1 nM biotinylated human DII4 is captured on streptavidin-coated donor beads (20 μg/mL), while 0.4 nM of the receptor human Notch1 (as a Fc fusion protein) is captured on anti-human Fc VHH-coated acceptor beads (20 μg/mL). Both loaded beads are incubated together with a dilution range of the competing VHH (FIG. 4 A-E).

Binder | EC50 (read off the curve) [1] [nM] | EC50 (read off the curve) [2] [nM] | binding result (human DLL1) | % inh [3] [%] | EC50 (recombinant mouse DLL4) [nM] | IC50, DLL4-mediated reporter assay (hDLL4) [4] [nM] | IC50 (recombinant human DLL4) [nM]
B1 | ~9 | ~40 | no binding (tested: 5e-7 M) | 92 | 53.9 |  | 
B2 |  |  |  |  |  | 108 | 
B3 | ~4 | ~30 | no binding (tested: 5e-7 M) | 84 | 33.4 |  | 5
B4 |  |  |  |  |  | 112 | 
B5 | ~3 |  |  |  | 6.3 |  | 1.2
